# T1: biotinylated human TROP2 antigen (human, UniProt P09758 27-274, C-terminal Avi tag sequence biotinylated)
# T1 construct: extracellular domain; Extracellular domain purified in house
# T1 sequence (looked up): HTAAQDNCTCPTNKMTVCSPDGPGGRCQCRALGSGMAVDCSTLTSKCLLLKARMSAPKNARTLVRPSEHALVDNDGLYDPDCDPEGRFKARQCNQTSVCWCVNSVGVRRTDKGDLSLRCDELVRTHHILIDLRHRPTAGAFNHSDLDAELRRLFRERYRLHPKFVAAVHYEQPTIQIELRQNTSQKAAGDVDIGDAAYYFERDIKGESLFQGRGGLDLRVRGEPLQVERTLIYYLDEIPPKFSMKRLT
# T2: biotinylated human GPRC5D amino terminal peptide (human, K(Biotin) at the C-terminus; C-terminal amide (NH2))
# T2 construct: The last K carries the biotin and is an added residue as printed; also called human GPRC5D antigen; humanGPRC5D antigen
# T2 peptide: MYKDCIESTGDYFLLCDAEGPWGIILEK
# B1: anti-TROP2 antibody HT1-11 (antibody)
# heavy: not shown
# light: DIQMTQSPSSLSASVGDRVTITCKASQDVSTAVAWYQQKPGKAPKLLIYSASYRYTGVPSRFSGSGSGTDFTLTISSLQPEDFAVYYCQQHYITPLTFGQGTKLEIKRTVAAPSVFIFPPSDEQLKSGTASVVCLLNNFYPREAKVQWKVDNALQSGNSQESVTEQDSKDSTYSLSSTLTLSKADYEKHKVYACEVTHQGLSSPVTKSFNRGEC
# notes: Known antibody of WO 2015/098099; Entries are called full-length
# B2: anti-TROP2 masked antibody MHT1007 (antibody)
# heavy: not shown
# light: B1 light
# notes: IgG-type; MHT1001 mimotope and MMP cleavable linker fused to the heavy chain
# B3: anti-TROP2 masked antibody MHT1009 (antibody)
# heavy: not shown
# light: B1 light
# notes: IgG-type
# B4: MHT1002 (scFv)
# scFv: AMGYLALKHPWPGLAENSGSGGGGSVLVPMAMMASGGSDVNSDIQMTQSPSSLSASVGDRVTITCKASQDVSTAVAWYQQKPGKAPKLLIYSASYRYTGVPSRFSGSGSGTDFTLTISSLQPEDFAVYYCQQHYITPLTFGQGTKLEIKRGGGGSGGGGSGGGGSQVQLVQSGAEVKKPGASVKVSCKASGYTFTTAGMQWVRQAPGQGLEWMGWINTHSGVPKYAEDFKGRVTISADTSTSTAYLQLSSLKSEDTAVYYCARSGFGSSYWYFDVWGQGTLVTVSSGAPSGDYKDDDDKGAAAHHHHHH
# notes: Mimotope peptide, MMP cleavable linker, HT1-11 scFv, FLAG tag, His tag; also called positive clone MHT1002
# B5: HT1-11-scFv-LH (scFv)
# scFv: ADVNSDIQMTQSPSSLSASVGDRVTITCKASQDVSTAVAWYQQKPGKAPKLLIYSASYRYTGVPSRFSGSGSGTDFTLTISSLQPEDFAVYYCQQHYITPLTFGQGTKLEIKRGGGGSGGGGSGGGGSQVQLVQSGAEVKKPGASVKVSCKASGYTFTTAGMQWVRQAPGQGLEWMGWINTHSGVPKYAEDFKGRVTISADTSTSTAYLQLSSLKSEDTAVYYCARSGFGSSYWYFDVWGQGTLVTVSSGAPSGDYKDDDDKGAAAHHHHHH
# notes: No mimotope fused; expressed in E. coli, purified on Ni Sepharose; also called scFv-type anti-TROP2 antibody
# B6: HT1-11-scFv-HL (scFv)
# scFv: ADVNSQVQLVQSGAEVKKPGASVKVSCKASGYTFTTAGMQWVRQAPGQGLEWMGWINTHSGVPKYAEDFKGRVTISADTSTSTAYLQLSSLKSEDTAVYYCARSGFGSSYWYFDVWGQGTLVTVSSGGGGSGGGGSGGGGSDIQMTQSPSSLSASVGDRVTITCKASQDVSTAVAWYQQKPGKAPKLLIYSASYRYTGVPSRFSGSGSGTDFTLTISSLQPEDFAVYYCQQHYITPLTFGQGTKLEIKRGAPSGDYKDDDDKGAAAHHHHHH
# notes: as for B5
# B7: MHT1001 (scFv)
# scFv: AMGYLALKHPWPGLAENSGSGGGGSVLVPMAMMASGGSDVNSQVQLVQSGAEVKKPGASVKVSCKASGYTFTTAGMQWVRQAPGQGLEWMGWINTHSGVPKYAEDFKGRVTISADTSTSTAYLQLSSLKSEDTAVYYCARSGFGSSYWYFDVWGQGTLVTVSSGGGGSGGGGSGGGGSDIQMTQSPSSLSASVGDRVTITCKASQDVSTAVAWYQQKPGKAPKLLIYSASYRYTGVPSRFSGSGSGTDFTLTISSLQPEDFAVYYCQQHYITPLTFGQGTKLEIKRGAPSGDYKDDDDKGAAAHHHHHH
# notes: also called positive clone MHT1001
# B8: anti-GPRC5D antibody C3022 (antibody, V domains shown)
# VH: QVQLVQSGAEVKKPGASVKVSCKASGYTFTGYYMHWVRQAPGQGLEWMGRINPNSGGTNYAQKFQGRVTMTRDTSISTAYMELSGLRSDDTAVYYCASGSVRHPWGQGTLVTVSS
# VL: QPVLTQPPSASGTPGQRVTISCSGSRSNIGGNIVSWYQQFPGTAPRLLTYADNQRPSGVPDRFSGSKSGTSASLAISGLQSEDEADYYCAAWDDSLNGVVFGGGTKLTVLG
# notes: Known antibody of WO 2018/147245
# How the values were obtained:
# [1] = molecular target: T1, biotinylated human TROP2 antigen; assay: ELISA, immobilised biotinylated human TROP2, anti-human IgG-HRP, chemiluminescence
# Method: (§1) NeutrAvidin (Thermo Fisher Scientific) diluted to 1 μg/ml with PBS was added at 50 μl/well to a 96-well Maxi-sorp plate (Black, Nunc) and immobilized at 4° C. overnight. The plate was washed with PBS containing 0.05% (w/v) Tween-20 (BioRad) (ELISA buffer) and then blocked with Blocker Casein (Thermo Fisher Scientific). The plate was washed with ELISA buffer, the biotinylated human TROP2 antigen (Accession Number: P09758; the extracellular domain was purified by the method known to a person skilled in the art and the C-terminal Avi tag sequence was then biotinylated) diluted to 1 μg/ml with PBS was added at 50 μl/well, and the resultant was then agitated for 30 minutes at room temperature. […] The plate was washed with ELISA buffer, 50 μl of the horseradish peroxidase (HRP)-labeled anti-human IgG antibody (Jackson Immuno Research Laboratories) diluted to 2,500-fold with ELISA buffer was added, and the resultant was then agitated for 30 minutes at room temperature. The plate was washed with ELISA buffer, the SuperSignal Pico ELISA chemiluminescent substrate (Thermo Fisher Scientific) was added, and chemiluminescence 10 minutes thereafter was then assayed using a plate reader.
# [2] = molecular target: T1, biotinylated human TROP2 antigen; assay: ELISA, immobilised biotinylated human TROP2, anti-human IgG-HRP, chemiluminescence; without MMP1
# Method: as §1
# [3] = molecular target: T1, biotinylated human TROP2 antigen; assay: ELISA, immobilised biotinylated human TROP2, anti-human IgG-HRP, chemiluminescence; antibody pre-incubated with MMP1
# Method: as §1
# [4] = molecular target: T1, biotinylated human TROP2 antigen; assay: as above; remark: listed apart in the source
# Method: as §1
# [5] = molecular target: T1, biotinylated human TROP2 antigen; assay: ELISA on human TROP2, antibody with or without MMP1 cleavage
# Method: as §1
# [6] = molecular target: T1, biotinylated human TROP2 antigen; assay: ELISA, immobilised biotinylated human TROP2, anti-human IgG-HRP, chemiluminescence; without MMP1; remark: listed apart in the source
# Method: as §1
# [7] = molecular target: T1, biotinylated human TROP2 antigen; assay: ELISA, immobilised biotinylated human TROP2, anti-human IgG-HRP, chemiluminescence; antibody pre-incubated with uPA
# Method: as §1
# [8] = molecular target: T1, biotinylated human TROP2 antigen; assay: ELISA on human TROP2, antibody with or without uPA cleavage
# Method: as §1
# [9] = molecular target: T1, biotinylated human TROP2 antigen; assay: ELISA, immobilised biotinylated human TROP2, anti-human IgG-HRP, chemiluminescence; without uPA
# Method: as §1
# [10] = molecular target: T1, biotinylated human TROP2 antigen; assay: ELISA, immobilised biotinylated human TROP2, anti-FLAG-HRP, chemiluminescence; without MMP1
# Method: (§2) NeutrAvidin (Thermo Fisher Scientific) diluted to 1 μg/ml with PBS was added at 50 μl/well to a 96-well Maxi-sorp plate (Black, Nunc) and immobilized at 4° C. overnight. The plate was washed with PBS containing 0.05% (w/v) Tween-20 (BioRad) (ELISA buffer) and then blocked with Blocker Casein (Thermo Fisher Scientific). The plate was washed with ELISA buffer, the biotinylated human TROP2 antigen (Accession Number: P09758; the extracellular domain was purified by the method known to a person skilled in the art and the C-terminal Avi tag sequence was then biotinylated) diluted to 1 μg/ml with PBS was added at 50 μl/well, and the resultant was then agitated for 30 minutes at room temperature. […] The plate was washed with ELISA buffer, the SuperSignal Pico ELISA chemiluminescent substrate (Thermo Fisher Scientific) was added, and chemiluminescence 10 minutes thereafter was then assayed using a plate reader.
# (§3) The resultant was then added to the plate comprising the human TROP2 antigen immobilized thereon at 50 μl/well. The bound scFv was detected using the HRP-labeled anti-FLAG antibody (Sigma-Aldrich) diluted to 5,000-fold with ELISA buffer.
# [11] = molecular target: T1, biotinylated human TROP2 antigen; assay: ELISA, immobilised biotinylated human TROP2, anti-FLAG-HRP, chemiluminescence; scFv pre-incubated with MMP1
# Method: as §2, §3
# [12] = molecular target: T1, biotinylated human TROP2 antigen; assay: ELISA on human TROP2, scFv with or without MMP1 cleavage
# Method: as §3
# Thereafter, the antibody with the concentration thereof being adjusted with ELISA buffer was added to the wells.
# [13] = molecular target: T1, biotinylated human TROP2 antigen; assay: ELISA, immobilised biotinylated human TROP2, anti-FLAG-HRP, chemiluminescence; scFv pre-incubated with MMP1; remark: listed apart in the source
# Method: as §2, §3
# [14] = molecular target: T1, biotinylated human TROP2 antigen; assay: ELISA, immobilised biotinylated human TROP2, anti-FLAG-HRP, chemiluminescence; without MMP1; remark: listed apart in the source
# Method: as §2, §3
# [15] = molecular target: T1, biotinylated human TROP2 antigen; assay: ELISA, immobilised biotinylated human TROP2, anti-FLAG-HRP, chemiluminescence; scFv pre-incubated with MMP1; remark: listed apart in the source
# Method: as §2, §3
# [16] = molecular target: T1, biotinylated human TROP2 antigen; assay: ELISA, immobilised biotinylated human TROP2, anti-FLAG-HRP, chemiluminescence; without MMP1; remark: listed apart in the source
# Method: as §2, §3
# [17] = molecular target: T1, biotinylated human TROP2 antigen; assay: ELISA, immobilised biotinylated human TROP2, anti-FLAG-HRP, chemiluminescence; scFv pre-incubated with MMP1; remark: listed apart in the source
# Method: as §2, §3
# [18] = molecular target: T2, biotinylated human GPRC5D amino …; assay: ELISA, immobilised biotinylated human GPRC5D amino terminal peptide, anti-human IgG-HRP, chemiluminescence
# Method: NeutrAvidin (Thermo Fisher Scientific) diluted to 1 μg/ml with PBS was added at 50 μl/well to a 96-well Maxi-sorp plate (Black, Nunc) and immobilized at 4° C. overnight. The plate was washed with PBS (ELISA buffer) containing 0.05 (w/v) % Tween-20 (BioRad) and then blocked with Blocker Casein (Thermo Fisher Scientific). The plate was washed with ELISA buffer, the biotinylated human GPRC5D amino terminal peptide ([sequence]-K(Biotin)-NH₂ (Peptide Institute, Inc.)) diluted to 1 μg/ml with PBS was added at 50 μl/well, and the resultant was agitated for 30 minutes at room temperature. The plate was washed with ELISA buffer, the MMP-buffered antibody was added at 50 μl/well, and the resultant was then agitated for 30 minutes at room temperature. The plate was washed with ELISA buffer, 50 μl of the horseradish peroxidase (HRP)-labeled anti-human IgG antibody (Jackson Immuno Research Laboratories) diluted to 2,500-fold with ELISA buffer was added, and the resultant was then agitated for 30 minutes at room temperature. The plate was washed with ELISA buffer, the SuperSignal Pico ELISA chemiluminescent substrate (Thermo Fisher Scientific) was added, and chemiluminescence 10 minutes thereafter was then assayed using a plate reader.
binder,measurement,setting,value
B1,EC50 (read off the curve),[1],~0.6 nM
same,EC50 (read off the curve),[2],~0.5 nM
same,EC50 (read off the curve),[3],~0.5 nM
B2,EC50 (read off the curve),[4],~0.3 nM
same,EC50 ratio of binding (under the condition without the addition of MMP1/under the condition with the addition of MMP1),[5],104
same,EC50 (read off the curve),[6],~30 nM
B3,EC50 (read off the curve),[7],~1 nM
same,EC50 ratio of binding (under the condition without the addition of uPA/under the condition with the addition of uPA),[8],83
same,EC50 (read off the curve),[9],~90 nM
B4,EC50 (read off the curve),[10],10 to 20 nM
same,EC50 (read off the curve),[11],~3 nM
same,EC50 ratio of binding (under the condition without the addition of MMP1/under the condition with the addition of MMP1),[12],4.3
B5,EC50 (read off the curve),[13],~3 nM
same,EC50 (read off the curve),[14],~3 nM
B6,EC50 (read off the curve),[15],~4 nM
same,EC50 (read off the curve),[16],~5 nM
B7,EC50 ratio of binding (under the condition without the addition of MMP1/under the condition with the addition of MMP1),[12],7.9
same,EC50 (read off the curve),[17],~8 nM
B8,EC50 (read off the curve),[18],~0.3 nM

# — patent publication US20250034274A1 (Daiichi Sankyo, published 2025)
